Reference: article PMC9950733, “Screening and epitope characterization of diagnostic nanobody against total and activated Bacteroides fragilis toxin” (Frontiers in Immunology, 2023)

T1: recombinant Bacteroides fragilis toxin 1 (BFT1), full length without signal peptide (Bacteroides fragilis (enterotoxigenic), …)
T1 chain: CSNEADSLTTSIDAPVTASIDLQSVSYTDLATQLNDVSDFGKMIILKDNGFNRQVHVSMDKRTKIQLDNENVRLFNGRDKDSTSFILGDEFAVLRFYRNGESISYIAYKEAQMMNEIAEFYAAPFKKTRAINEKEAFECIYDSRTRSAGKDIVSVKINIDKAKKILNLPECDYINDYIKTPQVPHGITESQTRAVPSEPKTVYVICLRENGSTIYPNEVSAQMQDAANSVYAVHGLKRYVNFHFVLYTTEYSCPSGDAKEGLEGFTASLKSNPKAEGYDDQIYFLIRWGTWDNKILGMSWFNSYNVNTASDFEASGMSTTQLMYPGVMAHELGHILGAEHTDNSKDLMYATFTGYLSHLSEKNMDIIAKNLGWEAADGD


Legend:
[1] = target: T1, recombinant Bacteroides fragilis toxin …
[2] = target: T1, recombinant Bacteroides fragilis toxin …; assay: ITC; Microcal ITC 200, 25°C; 20 mM Tris pH 8.0, 150 mM NaCl, 5% glycerol; nanobody (20 μM) injected into BFT solution (200 μM); one binding site mode; details: both partners purified
[3] = target: T1, recombinant Bacteroides fragilis toxin …; assay: as above; details: both partners purified

Binder | binding result [1] | stoichiometry N [2] | Kd [3] | dH [3]
Nb3.74 (VHH) VHH: QVQLQESGGGFVQTGGSLRLSCERSGTTFDSFAMGWFRQAPGKERESVGTINWSGDRTYYADSVKGRFTISRDNAKNTVYLQMKKLKPEDTAVYYCAQIRGTYLDGSPGSWGQGTQVTVSS | binds |  |  | 
Nb2.59 (VHH) VHH: QVQLQESGGGLVQAGGSLRLSCAFSGRTDDAQYAMGWFRQAPGKERESVGTINWSGDRTNYADSVKGRFTISRDNVKNMMYLQMNSLKPEDTAVYYCARIYGTYLSGSPGSWGQGTQVTVSS | binds |  |  | 
Nb2.50 (VHH) VHH: QVQLQESGGGLVQAGGSLRLSCVSSGRTFDAWAMGWLRQAPGKERESVATISWSGDRTQYADSVKGRFTISRDNAKNTLFLQMNNLRPEDTAIYYCALMEGTHYSGRPGTWGRGTQVTVSS | binds |  |  | 
Nb3.61 (VHH) VHH: QVQLQESGGGLVQPGGSLRLSCAASGFSFSSYAMTWVRQAPGKGPERVSIINPSGRTTNYADSVKGRFTISRDNAKNTLYLQMNSLKPEDTALYYCARKPPMAEEYDYRGQGTQVTVSS | binds |  |  | 
Nb2.74 (VHH) VHH: QVQLQESGGGLVQPGGSLRLSCGASGFTFNGYAMSWVRQAPGKGPEWVSGINTIGNTTYYADSVKGRFTISRDNAQNTLYLQMNSLKPEDTALYYCARKPFGSTWTEYDYRGQGTQVTVSS | binds |  |  | 
Nb3.88 (VHH) VHH: QVQLQESGGGLVQPGGSLRLSCAASGLTFNGYAMSWVRQAPGKGPEWVSGINTIGTTTYYADSVKGRFTISRDNAKNTLYLQMNSLKPEDTALYYCARKPFGSTWSEYDYRGQGTQVTVSS | binds |  |  | 
Nb2.1 (VHH) VHH: QVQLQESGGGLVQPEGSLRLSCVASGEFTLDYYAIGWFRQAPGKEREELSCISRTGANTNYADSVKGRFTVSRDNAKNTVYLQMNSLKPEDTANYYCAATLGVNNDCSGYVSPDVYDYWGHGTQVTVSS | binds |  |  | 
Nb2.13 (VHH) VHH: QVQLQESGGGLVQPGGSLTLSCVGSGFSLEYYAVGWFRQAPGKEREAVACISSWDGLTYLSDSVKGRFTVSRDNVKNTAYLQMNSLKPEDSAVYYCARDRARCRYYSTPNEYDEWGHGTQVTVSS | binds |  |  | 
Nb2.14 (VHH, from round 2 of bio-panning; source: E. coli WK6 periplasm, purified (Ni-NTA, SEC on Superdex 75)) VHH: QVQLQESGGGFVQTGGSLRLSCERSGTTFDSFAMGWFRQSPGKEREKVATINWSGESTSYTDSVKGRFTISRDNAKNTVYLQMNNLQPEDTAIYYCAQIAGTHYSGTPQYWGQGTQVTVSS |  | 1 | 0.36 nM | -14.3 kcal/mol
Nb2.41 (VHH, from round 2 of bio-panning; source: E. coli WK6 periplasm, purified (Ni-NTA, SEC on Superdex 75)) VHH: QVQLQESGGGLVQAGGSLRLSCASSGRTFDAWAMGWFRQAPGKEREVVATISWNGDRTYYGDSVKGRFTISRDNAKSTVALQMNNLKPEDTGVYYCAQMEGTYYSGRPSYWGQGTQVTVSS |  | 1 | 1.37 nM | -20 kcal/mol
Nb2.55 (VHH, from round 2 of bio-panning; source: E. coli WK6 periplasm, purified (Ni-NTA, SEC on Superdex 75)) VHH: QVQLQESGGGLVQAGGSLRLSCVRSGHTFDAFAMGWFRQAPGKERESVATINWSGDRTYYADSAKGRFTISRDNAKNTVYLQMNSLKPEDTAVYYCAQMDGTYYSGTPSYWGQGTQVTVSS |  | 1 | 10.6 nM | -10 kcal/mol
Nb2.82 (VHH, from round 2 of bio-panning; CDR1 Gly26-Thr33, CDR2 Ile51-Thr58, CDR3 Ala97-Asp111; source: E. coli WK6 periplasm, purified (Ni-NTA, SEC on Superdex 75)) VHH: QVQLQESGGGLVQPGGSLRLSCAASGFTFSRYTMTWVRQAPGKGLEWVSNINSDGGRTYYADSVKGRFTISRDNTKNTLYLQMNSLKPEDTAVYYCAIPKRTYVPPSQFDDRGQGTQVTVSS |  | 1 | 11.5 nM | -17.9 kcal/mol
Nb3.4 (VHH, from round 3 of bio-panning; source: E. coli WK6 periplasm, purified (Ni-NTA, SEC on Superdex 75)) VHH: QVQLQESGGGLVQPGGSLRLSCAASGFTFSSAAMNWVRQAPGKGPEWVSGINSSGTTTKYADSVKGRFTISRDNAKNTLYLQMNSLKPEDTAIYYCARKPLWSVGYDYWGQGTQVTVSS |  | 1 | 3.94 nM | -8.4 kcal/mol
Nb3.17 (VHH, from round 3 of bio-panning; source: E. coli WK6 periplasm, purified (Ni-NTA, SEC on Superdex 75)) VHH: QVQLQESGGGLVQAGDSLRLSCAASGGSFDMFAMGWFRQAPGKERERVATISWSGDRTVYADSVKGRFTISRDNTKKMLYLQMNNLKPEDTAVYYCAQIEGTHYSGSPSDHWGQGTQVTVSS |  | 1 | 0.66 nM | -20.3 kcal/mol
Nb3.27 (VHH, from round 3 of bio-panning; CDR1 Gly26-Ala33, CDR2 Ile51-Thr58, CDR3 Ala97-Asn110; source: E. coli WK6 periplasm, purified (Ni-NTA, SEC on Superdex 75)) VHH: QVQLQESGGGLVQAGGSLRLSCTYSGQTFSAWAMGWFRQAPGKERETVATINWNGERTQYADAVKGRFTISRDNAKDTVYLEMNSLKPEDTAVYYCASMMGTYYSGSPKNWGQGTQVTVSS |  | 1 | 0.828 nM | -9.47 kcal/mol
Nb3.40 (VHH, from round 3 of bio-panning; source: E. coli WK6 periplasm, purified (Ni-NTA, SEC on Superdex 75)) VHH: QVQLQESGGGFVQTGGSLRLSCERSGTTFDSFAMGWFRQSPGKEREKVATINWSGESTSYTDSVKGRFTISRDNAKNTVYLQMNNLQPEDTAIYYCAQIAGTYYSGTPQYWGQGTQVTVSS |  | 1 | 2.58 nM | -13.6 kcal/mol
Nb3.43 (VHH, from round 3 of bio-panning; source: E. coli WK6 periplasm, purified (Ni-NTA, SEC on Superdex 75)) VHH: QVQLQESGGGLVQAGGSLRLSCARSGRTFSSFAMGWFRQAPGKEREFVATINWSGDKTSYADSVKGRFTISRDNAKNTVYLQMNSLKPEDTAVYYCAQMDGTYYSGSPGYWGQGTQVTVSS |  | 1 | 2.01 nM | -9.06 kcal/mol
Nb3.63 (VHH, from round 3 of bio-panning; source: E. coli WK6 periplasm, purified (Ni-NTA, SEC on Superdex 75)) VHH: QVQLQESGGGLVQVGGSLRLSCAASGRTFGTFPMGWFRQAPGKEREFVAAISWSGTGTYYANSVKGRFTISRDNARNTVYLQMNNLKPEDTAVYSCAGRNTGRYSTTVYVEESDYGYWGQGTQVTVSS |  | 1 | 3.37 nM | -18.8 kcal/mol
Nb3.93 (VHH, from round 3 of bio-panning; source: E. coli WK6 periplasm, purified (Ni-NTA, SEC on Superdex 75)) VHH: QVQLQESGGGLVQPGGSLRLSCAASGSTLARYHIGWFRQAPGKEREGVACISSSGDSTNYADSVKGRFTISRDNANNTVYLQMNSLKPEDTAVYYCVADPLKCILRRGGENRYLEHWGQGTQVTVSS |  | 1 | 5.96 nM | -22.1 kcal/mol
Nb2.29 (VHH, from round 2 of bio-panning; source: E. coli WK6 periplasm, purified (Ni-NTA, SEC on Superdex 75)) VHH: QVQLQESGGGLVQAGGSLRLSCVASGIIDNINTFGWYRQAPGKQRELVANISRWGNTNYADSSRDGFFISSEDANTTMYLLMMNLKPDDDAVYYCRAEIIGYDNGAHDYWGRGTRITVSS |  | 1 | 1.18 nM | -15.5 kcal/mol
Nb2.37 (VHH, from round 2 of bio-panning; source: E. coli WK6 periplasm, purified (Ni-NTA, SEC on Superdex 75)) VHH: QVQLQESGGGLVQPGGSLRLSCVVSRRTFDAWAMGWFRQAPGQERDFVASVNWSGDSTYYADSVKGRFTISRDNAKNTVYLQMNSLKPEDTAVYYCAALAGSYHSRTPLDDYWGQGTQVTVSS |  | 1 | 3.91 nM | -14.1 kcal/mol
Nb2.40 (VHH, from round 2 of bio-panning; source: E. coli WK6 periplasm, purified (Ni-NTA, SEC on Superdex 75)) VHH: QVQLQESGGGLVQAGGSLRLSCAYFGRTFSAWAMGWFRQAPGKERESVATINWSGERTSYADSVKGRFTISRDNAKNTVYLQMNSLKPEDTAVYYCAAMEGTYYSGKPGTWGQGTQVTVSS |  | 1 | 8.72 nM | -13.5 kcal/mol
